Earlier results, collected in PMC10103170.

Biological target: Ubiquitin (Homo sapiens) (UniProt P0CG48)

Chain of ALIX V domain (Q8WUM4 360-702): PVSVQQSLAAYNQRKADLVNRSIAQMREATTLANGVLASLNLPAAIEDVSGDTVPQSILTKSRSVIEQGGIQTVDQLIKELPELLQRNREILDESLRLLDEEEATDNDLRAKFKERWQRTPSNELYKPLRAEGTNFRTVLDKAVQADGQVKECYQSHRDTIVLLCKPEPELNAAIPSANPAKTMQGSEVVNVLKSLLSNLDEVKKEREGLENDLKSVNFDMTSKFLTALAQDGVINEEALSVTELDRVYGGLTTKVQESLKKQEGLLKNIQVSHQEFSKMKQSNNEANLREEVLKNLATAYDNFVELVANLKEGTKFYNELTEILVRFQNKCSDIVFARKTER

Which Kd does the source give for ALIX V domain (from UniProt Q8WUM4) here?
The Kd was 120 µM.
